From article PMC4930773, “Cataract-causing mutation S228P promotes βB1-crystallin aggregation and degradation by separating two interacting loops in C-terminal domain” (Protein & Cell, 2016)

Target: T1, wild type βB1-crystallin (human, UniProt P53674 1-252)
T1 construct: human βB1-crystallin (CRYBB1), cloned from a human lens cDNA library into pET28a; no cleavage of the tag is described; also called WT βB1; WT; source: E. coli BL21 (DE3), purified (Ni-NTA, Superdex 200 gel filtration); not shown: His tag, N-terminal, kept
T1 sequence (looked up): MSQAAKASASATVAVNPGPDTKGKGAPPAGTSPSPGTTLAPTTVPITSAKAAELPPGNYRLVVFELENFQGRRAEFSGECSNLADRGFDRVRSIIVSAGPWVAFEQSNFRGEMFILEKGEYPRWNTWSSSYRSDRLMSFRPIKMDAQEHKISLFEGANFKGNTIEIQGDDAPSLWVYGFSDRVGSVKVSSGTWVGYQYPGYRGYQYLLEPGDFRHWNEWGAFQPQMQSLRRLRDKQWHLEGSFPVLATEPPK
Assay: SEC; equal molar homomers mixed and incubated at 37°C, aggregates removed by centrifugation; Superdex 200, buffer A (20 mmol/L sodium phosphate, 150 mmol/L NaCl, 1 mmol/L EDTA, 1 mmol/L DTT, pH 7.0), 30 µmol/L protein; SDS-PAGE of soluble and insoluble fractions alongside
Details: both partners purified

- binding result: binds
B1: βA3-crystallin (natural protein, human, UniProt P05813 1-215, looked up)
chain: METQAEQQELETLPTTKMAQTNPTPGSLGPWKITIYDQENFQGKRMEFTSSCPNVSERSFDNVRSLKVESGAWIGYEHTSFCGQQFILERGEYPRWDAWSGSNAYHIERLMSFRPICSANHKESKMTIFEKENFIGRQWEISDDYPSLQAMGWFNNEVGSMKIQSGAWVCYQYPGYRGYQYILECDHHGGDYKHWREWGSHAQTSQIQSIRRIQQ
notes: source: E. coli BL21 (DE3), purified (Ni-NTA, Superdex 200 gel filtration)
